From publication PMC3028594 (DNA repair, 2010) come the findings set out here.

Sequences and labels used below:
B3: Bacillus subtilis β sliding clamp (β subunit of DNA polymerase III) (natural protein, UniProt P05649 1-378, looked up)
chain: MKFTIQKDRLVESVQDVLKAVSSRTTIPILTGIKIVASDDGVSFTGSDSDISIESFIPKEEGDKEIVTIEQPGSIVLQARFFSEIVKKLPMATVEIEVQNQYLTIIRSGKAEFNLNGLDADEYPHLPQIEEHHAIQIPTDLLKNLIRQTVFAVSTSETRPILTGVNWKVEQSELLCTATDSHRLALRKAKLDIPEDRSYNVVIPGKSLTELSKILDDNQELVDIVITETQVLFKAKNVLFFSRLLDGNYPDTTSLIPQDSKTEIIVNTKEFLQAIDRASLLAREGRNNVVKLSAKPAESIEISSNSPEIGKVVEAIVADQIEGEELNISFSPKYMLDALKVLEGAEIRVSFTGAMRPFLIRTPNDETIVQLILPVRTY

Holding throughout (assay): cross-linking
The target of data set [1] is Escherichia coli β sliding clamp (β subunit of DNA polymerase III) (Escherichia coli, UniProt P0A988 1-366).
Chain of Escherichia coli β sliding clamp (β subunit of DNA polymerase III) (P0A988 whole entry): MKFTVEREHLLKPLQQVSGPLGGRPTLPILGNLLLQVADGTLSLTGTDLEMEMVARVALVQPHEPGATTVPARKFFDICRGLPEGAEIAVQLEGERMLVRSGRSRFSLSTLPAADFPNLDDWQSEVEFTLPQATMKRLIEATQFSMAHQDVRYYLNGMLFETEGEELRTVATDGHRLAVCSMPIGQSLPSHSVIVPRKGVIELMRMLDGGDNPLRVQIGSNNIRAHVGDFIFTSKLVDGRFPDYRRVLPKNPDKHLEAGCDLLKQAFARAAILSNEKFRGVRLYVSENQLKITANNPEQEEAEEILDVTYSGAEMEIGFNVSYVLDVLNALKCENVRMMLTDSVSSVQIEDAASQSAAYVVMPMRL
The data set “cross-linking” deals with the molecule itself.
The target of data set [2] is B3.

B1: C-terminal (endonuclease) domain of Bacillus subtilis MutL (domain or fragment, UniProt P49850 433-627, looked up)
chain: SDRVPIMYPIGQMHGTYILAQNENGLYIIDQHAAQERIKYEYFREKVGEVEPEVQEMIVPLTFHYSTNEALIIEQHKQELESVGVFLESFGSNSYIVRCHPAWFPKGEEAELIEEIIQQVLDSKNIDIKKLREEAAIMMSCKGSIKANRHLRNDEIKALLDDLRSTSDPFTCPHGRPIIIHHSTYEMEKMFKRVM
The term stoichiometry N denotes the number of molecules, sites or subunits per partner or assembly. Turning to B1, the binding result in data set [1] is reported as “binds”. Also, in the data set “cross-linking”, the “stoichiometry N” value came out at 2.

B2: C-terminal domain of Escherichia coli MutL (domain or fragment, UniProt P23367 432-615, looked up)
chain: SQSFGRVLTIVHSDCALLERDGNISLLSLPVAERWLRQAQLTPGEAPVCAQPLLIPLRLKVSAEEKSALEKAQSALAELGIDFQSDAQHVTIRAVPLPLRQQNLQILIPELIGYLAKQSVFEPGNIAQWIARNLMSEHAQWSMAQAITLLADVERLCPQLVKTPPGGLLQSVDLHPAIKALKDE
As to B2, in data set [2], the binding result is listed as “binds”. Besides, the “stoichiometry N” value in “cross-linking” is no less than 2.

Consider B3, for which, in “cross-linking”, the “stoichiometry N” value came to 2.

B4: regulatory subdomain of Bacillus subtilis MutL (domain or fragment, UniProt P49850 471-574, looked up)
chain: KYEYFREKVGEVEPEVQEMIVPLTFHYSTNEALIIEQHKQELESVGVFLESFGSNSYIVRCHPAWFPKGEEAELIEEIIQQVLDSKNIDIKKLREEAAIMMSCK
Consider B4, for which the binding result in data set [2] was “binds”.

B5: regulatory subdomain of Escherichia coli MutL (domain or fragment, UniProt P23367 466-569, looked up)
chain: WLRQAQLTPGEAPVCAQPLLIPLRLKVSAEEKSALEKAQSALAELGIDFQSDAQHVTIRAVPLPLRQQNLQILIPELIGYLAKQSVFEPGNIAQWIARNLMSEH
On to B5, for which the binding result in data set [1] was “binds”.
